Read-outs that look alike come from different tables or passages of the source.
Columns and labels:
Experiment in all cases: cell-based or functional assay
[1] = target: HIV-1 Env of pseudovirus ZM197 (HIV-1)
[2] = target: HIV-1 Env of pseudovirus JRCSF (HIV-1) (UniProt P20871)
[3] = target: HIV-1 Env of pseudovirus 3817 (HIV-1)
[4] = target: HIV-1 Env of pseudovirus pCNE8 (HIV-1)
[5] = target: HIV-1 Env of pseudovirus 278 (HIV-1)
[6] = target: HIV-1 Env of pseudovirus X2088 (HIV-1)
[7] = target: HIV-1 Env of pseudovirus SF162 (HIV-1) (UniProt P19550)
[8] = target: HIV-1 Env of pseudovirus X1632 (HIV-1)
[9] = target: HIV-1 Env of pseudovirus T257 (HIV-1)
[10] = target: HIV-1 Env of pseudovirus ZM106 (HIV-1)
[11] = target: HIV-1 Env of pseudovirus PV0 (HIV-1)
[12] = target: HIV-1 Env of pseudovirus Du422 (HIV-1)
[13] = target: HIV-1 Env of pseudovirus BG505 (HIV-1)
[14] = target: HIV-1 Env of pseudovirus THRO (HIV-1)
[15] = target: HIV-1 Env of pseudovirus ZM197 (HIV-1); remark: listed apart in the source
[16] = target: HIV-1 Env of pseudovirus JRCSF (HIV-1) (UniProt P20871); remark: listed apart in the source
[17] = target: HIV-1 Env of pseudovirus 3817 (HIV-1); remark: listed apart in the source
[18] = target: HIV-1 Env of pseudovirus pCNE8 (HIV-1); remark: listed apart in the source
[19] = target: HIV-1 Env of pseudovirus 278 (HIV-1); remark: listed apart in the source
[20] = target: HIV-1 Env of pseudovirus X2088 (HIV-1); remark: listed apart in the source
[21] = target: HIV-1 Env of pseudovirus SF162 (HIV-1) (UniProt P19550); remark: listed apart in the source
[22] = target: HIV-1 Env of pseudovirus X1632 (HIV-1); remark: listed apart in the source
[23] = target: HIV-1 Env of pseudovirus T257 (HIV-1); remark: listed apart in the source
[24] = target: HIV-1 Env of pseudovirus ZM106 (HIV-1); remark: listed apart in the source
[25] = target: HIV-1 Env of pseudovirus PV0 (HIV-1); remark: listed apart in the source
[26] = target: HIV-1 Env of pseudovirus Du422 (HIV-1); remark: listed apart in the source
[27] = target: HIV-1 Env of pseudovirus BG505 (HIV-1); remark: listed apart in the source
[28] = target: HIV-1 Env of pseudovirus THRO (HIV-1); remark: listed apart in the source

Substance | IC50, neutralization of ZM197 PsV [1] [nM] | IC50, neutralization of JRCSF PsV [2] [nM] | IC50, neutralization of 3817 PsV [3] [nM] | IC50, neutralization of pCNE8 PsV [4] | IC50, neutralization of 278 PsV [5] [nM] | IC50, neutralization of X2088 PsV [6] [nM] | IC50, neutralization of SF162 PsV [7] [nM] | IC50, neutralization of X1632 PsV [8] [nM] | IC50, neutralization of T257 PsV [9] [nM] | IC50, neutralization of ZM106 PsV [10] [nM] | IC50, neutralization of PV0 PsV [11] [nM] | IC50, neutralization of Du422 PsV [12] [nM] | IC50, neutralization of BG505 PsV [13] [nM] | IC50, neutralization of THRO PsV [14] [nM] | IC50, neutralization of ZM197 PsV [15] [µg/mL] | IC50, neutralization of JRCSF PsV [16] [µg/mL] | IC50, neutralization of 3817 PsV [17] [µg/mL] | IC50, neutralization of pCNE8 PsV [18] [µg/mL] | IC50, neutralization of 278 PsV [19] [µg/mL] | IC50, neutralization of X2088 PsV [20] [µg/mL] | further results
32-N multabody (PGDM1400 scFab-human apoferritin : scFc-N-Ferritin : N49P7 scFab-C-Ferritin : 10E8v4 scFab-C-Ferritin, 4:2:1:1) | 0.0042 | 0.0023 | 3.9 | 1.4 pM | 0.0039 | 2.3 | 0.58 | 0.002 | 0.0016 | 0.0039 | 0.15 | 1.08 | 0.0019 | 0.025 | 0.0096 | 0.0054 | 9.1 | 0.0032 | 0.009 | 5.2 | IC50, neutralization of SF162 PsV [21]: 1.3 µg/mL; IC50, neutralization of X1632 PsV [22]: 0.0045 µg/mL; IC50, neutralization of T257 PsV [23]: 0.0037 µg/mL; IC50, neutralization of ZM106 PsV [24]: 0.0089 µg/mL; IC50, neutralization of PV0 PsV [25]: 0.33 µg/mL; IC50, neutralization of Du422 PsV [26]: 2.5 µg/mL; IC50, neutralization of BG505 PsV [27]: 0.0045 µg/mL; IC50, neutralization of THRO PsV [28]: 0.058 µg/mL
32-I multabody (PGDM1400 scFab-human apoferritin : scFc-N-Ferritin : iMab A12P scFab-C-Ferritin : 10E8v4 scFab-C-Ferritin, 4:2:1:1) | 0.0019 | 0.0017 | 0.79 | 0.57 pM | 0.0035 | 1.3 | 1.1 | 0.0034 | 0.00068 | 0.0014 | 0.052 | 0.31 | 0.0011 | 0.014 | 0.0044 | 0.004 | 1.8 | 0.0013 | 0.008 | 3.1 | IC50, neutralization of SF162 PsV [21]: 2.5 µg/mL; IC50, neutralization of X1632 PsV [22]: 0.008 µg/mL; IC50, neutralization of T257 PsV [23]: 0.0015 µg/mL; IC50, neutralization of ZM106 PsV [24]: 0.0031 µg/mL; IC50, neutralization of PV0 PsV [25]: 0.12 µg/mL; IC50, neutralization of Du422 PsV [26]: 0.7 µg/mL; IC50, neutralization of BG505 PsV [27]: 0.0026 µg/mL; IC50, neutralization of THRO PsV [28]: 0.033 µg/mL
10E8v4 IgG (antibody) | 1.3 | 12 | 21 | 6.4 nM | 12 | > 100 | 20 | 13 | 9.8 | > 100 | 42 | 3.7 | 9 | 2.5 | 0.19 | 1.8 | 3.1 | 0.96 | 1.8 | > 50 | IC50, neutralization of X1632 PsV [22]: 2.02 µg/mL; IC50, neutralization of T257 PsV [23]: 1.5 µg/mL; IC50, neutralization of ZM106 PsV [24]: > 50 µg/mL; IC50, neutralization of PV0 PsV [25]: 6.3 µg/mL; IC50, neutralization of Du422 PsV [26]: 0.55 µg/mL; IC50, neutralization of BG505 PsV [27]: 1.4 µg/mL; IC50, neutralization of THRO PsV [28]: 0.37 µg/mL
PGDM1400 IgG (antibody) | 0.68 | 0.049 | > 100 | 18 pM | 1.1 | > 100 | > 100 | 0.12 | 0.08 | 0.084 | 8.4 | 40 | 0.02 | 0.61 | 0.11 | 0.0074 | > 50 | 0.0027 | 0.16 | > 50 | IC50, neutralization of SF162 PsV [21]: > 50 µg/mL; IC50, neutralization of X1632 PsV [22]: 0.018 µg/mL; IC50, neutralization of T257 PsV [23]: 0.012 µg/mL; IC50, neutralization of ZM106 PsV [24]: 0.013 µg/mL; IC50, neutralization of PV0 PsV [25]: 1.3 µg/mL; IC50, neutralization of Du422 PsV [26]: 6 µg/mL; IC50, neutralization of BG505 PsV [27]: 0.0032 µg/mL; IC50, neutralization of THRO PsV [28]: 0.09 µg/mL
N6/PGDM1400x10E8v4 trispecific antibody | 0.42 | 0.15 | 6.7 | 0.14 nM | 7.1 | 3.2 | 1.9 | 0.17 | 0.16 | 0.1 | 7.2 | 1.1 | 0.34 | 1.7 | 0.073 | 0.026 | 1.2 | 0.024 | 1.2 | 0.56 | IC50, neutralization of SF162 PsV [21]: 0.33 µg/mL; IC50, neutralization of X1632 PsV [22]: 0.03 µg/mL; IC50, neutralization of T257 PsV [23]: 0.028 µg/mL; IC50, neutralization of ZM106 PsV [24]: 0.017 µg/mL; IC50, neutralization of PV0 PsV [25]: 1.3 µg/mL; IC50, neutralization of Du422 PsV [26]: 0.19 µg/mL; IC50, neutralization of BG505 PsV [27]: 0.059 µg/mL; IC50, neutralization of THRO PsV [28]: 0.31 µg/mL

Source: patent publication US20230145060A1
